Measured values: publication doi:10.1101/2025.03.26.645513 (bioRxiv, 2025)

B1: Escherichia coli O-acetylserine sulfhydrylase CysK (enzyme, UniProt P0ABK5 1-323, looked up)
chain: MSKIFEDNSLTIGHTPLVRLNRIGNGRILAKVESRNPSFSVKCRIGANMIWDAEKRGVLKPGVELVEPTSGNTGIALAYVAAARGYKLTLTMPETMSIERRKLLKALGANLVLTEGAKGMKGAIQKAEEIVASNPEKYLLLQQFSNPANPEIHEKTTGPEIWEDTDGQVDVFIAGVGTGGTLTGVSRYIKGTKGKTDLISVAVEPTDSPVIAQALAGEEIKPGPHKIQGIGAGFIPANLDLKLVDKVIGITNEEAISTARRLMEEEGILAGISSGAAVAAALKLQEDESFTNKNIVVILPSSGERYLSTALFADLFTEKELQQ

Legend:
[1] = target: Neisseria gonorrhoeae O-acetylserine sulfhydrylase CysK (Neisseria gonorrhoeae); assay: SEC
[2] = target: Neisseria gonorrhoeae O-acetylserine sulfhydrylase CysK (Neisseria gonorrhoeae); assay: SEC-SAXS
SEC = target: the molecule itself; assay: SEC
[3] = target: B1; assay: SEC
SEC-SAXS = target: the molecule itself; assay: SEC-SAXS

Molecule | stoichiometry N (SEC) | stoichiometry N (SEC-SAXS) | also measured
Neisseria gonorrhoeae O-acetylserine sulfhydrylase CysK (enzyme) | – | – | stoichiometry N [1]: 2; stoichiometry N [2]: 2
Escherichia coli serine acetyltransferase CysE (enzyme) MSCEELEIVWNNIKAEARTLADCEPMLASFYHATLLKHENLGSALSYMLANKLSSPIMPAIAIREVVEEAYAADPEMIASAACDIQAVRTRDPAVDKYSTPLLYLKGFHALQAYRIGHWLWNQGRRALAIFLQNQVSVTFQVDIHPAAKIGRGIMLDHATGIVVGETAVIENDVSILQSVTLGGTGKSGGDRHPKIREGVMIGAGAKILGNIEVGRGAKIGAGSVVLQPVPPHTTAAGVPARIVGKPDSDKPSMDMDQHFNGINHTFEYGDGI | 6 | – | binding result [3]: binds
Staphylococcus aureus O-acetylserine sulfhydrylase CysK (enzyme, UniProt P63870 1-310, looked up) MAQKPVDNITQIIGGTPVVKLRNVVDDNAADVYVKLEYQNPGGSVKDRIALAMIEKAEREGKIKPGDTIVEPTSGNTGIGLAFVCAAKGYKAVFTMPETMSQERRNLLKAYGAELVLTPGSEAMKGAIKKAKELKEEHGYFEPQQFENPANPEVHELTTGPELLQQFEGKTIDAFLAGVGTGGTLSGVGKVLKKEYPNIEIVAIEPEASPVLSGGEPGPHKLQGLGAGFIPGTLNTEIYDSIIKVGNDTAMEMSRRVAKEEGILAGISSGAAIYAAIQKAKELGKGKTVVTVLPSNGERYLSTPLYSFDD | – | 2 | –
B1 | – | 2 | –
Neisseria gonorrhoeae serine acetyltransferase CysE (enzyme) MKKNHLNTTGFDLWHTIREETAAAAAAEPMLASFLHQTVLRHESLGSVLAYHLSSKLGSPIMDVRALFEIYQQALGSDTQISKCVEADLKAIYERDPACDEYSLPLLYFKGFHAIQAHRINHRLYLDGRKTLAYFLQNRMSEVFGVDIHPAARLGYGLMLDHATGFVAGETAVLGNNISILHGVTLGGSGKEGGDRHPKIGDGVMIGANASILGNIRIGSNAKIGAGSVVVSDVPPSITVVGVPAKPVARSLKTPSADMDQNIQFAEIDFMI | 6 | – | –
